The results in this text go back to patent US20220204643A1 (published 2022).

Assay [1] concerns the target T1, checkpoint kinase 2, transcript variant 3 (human).
T1 construct: on protein array; also called CHEK2
T1 chain: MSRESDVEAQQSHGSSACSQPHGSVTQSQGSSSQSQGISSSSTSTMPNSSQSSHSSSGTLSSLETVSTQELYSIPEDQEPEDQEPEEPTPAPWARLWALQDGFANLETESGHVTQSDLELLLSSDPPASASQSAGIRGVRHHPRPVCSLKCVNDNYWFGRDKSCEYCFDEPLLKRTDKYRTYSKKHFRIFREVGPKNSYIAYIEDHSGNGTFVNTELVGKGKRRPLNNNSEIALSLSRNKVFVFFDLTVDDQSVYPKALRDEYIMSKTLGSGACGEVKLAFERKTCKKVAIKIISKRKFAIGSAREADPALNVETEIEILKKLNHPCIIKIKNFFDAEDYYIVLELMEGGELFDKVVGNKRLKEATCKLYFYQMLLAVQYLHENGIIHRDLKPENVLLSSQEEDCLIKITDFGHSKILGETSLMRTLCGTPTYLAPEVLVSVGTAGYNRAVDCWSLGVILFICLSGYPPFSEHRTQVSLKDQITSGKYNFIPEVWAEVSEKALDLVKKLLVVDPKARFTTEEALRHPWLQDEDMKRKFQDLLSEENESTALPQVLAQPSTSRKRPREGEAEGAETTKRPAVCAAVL
The experiment in a line: protein array.

The target in assay [2] is T2, S100 calcium binding protein B (human, UniProt P04271 2-92).
T2 construct: on protein array; also called S100B
T2 sequence: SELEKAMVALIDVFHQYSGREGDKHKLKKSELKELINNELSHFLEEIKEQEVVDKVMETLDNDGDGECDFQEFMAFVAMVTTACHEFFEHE
The experiment in a line: protein array, with experimental replicate.

For assay [3], the target named is T3, ankyrin repeat domain 53, transcript variant 2 (human).
T3 construct: on protein array; also called ANKRD53
T3 chain: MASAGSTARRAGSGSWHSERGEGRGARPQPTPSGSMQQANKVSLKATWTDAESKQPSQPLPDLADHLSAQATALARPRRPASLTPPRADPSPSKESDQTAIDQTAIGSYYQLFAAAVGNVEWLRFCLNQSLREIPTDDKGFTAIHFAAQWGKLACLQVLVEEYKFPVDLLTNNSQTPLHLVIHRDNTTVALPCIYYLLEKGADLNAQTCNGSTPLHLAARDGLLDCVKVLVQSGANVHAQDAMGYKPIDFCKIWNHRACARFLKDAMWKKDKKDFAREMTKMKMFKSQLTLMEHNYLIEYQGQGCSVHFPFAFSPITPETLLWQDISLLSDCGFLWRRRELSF
The experiment in a line: protein array, with experimental replicate.

The target of assay [4] is T4, CDP-diacylglycerol synthase 1 (human, UniProt Q92903 1-461).
T4 construct: on protein array; also called CDS1
T4 sequence: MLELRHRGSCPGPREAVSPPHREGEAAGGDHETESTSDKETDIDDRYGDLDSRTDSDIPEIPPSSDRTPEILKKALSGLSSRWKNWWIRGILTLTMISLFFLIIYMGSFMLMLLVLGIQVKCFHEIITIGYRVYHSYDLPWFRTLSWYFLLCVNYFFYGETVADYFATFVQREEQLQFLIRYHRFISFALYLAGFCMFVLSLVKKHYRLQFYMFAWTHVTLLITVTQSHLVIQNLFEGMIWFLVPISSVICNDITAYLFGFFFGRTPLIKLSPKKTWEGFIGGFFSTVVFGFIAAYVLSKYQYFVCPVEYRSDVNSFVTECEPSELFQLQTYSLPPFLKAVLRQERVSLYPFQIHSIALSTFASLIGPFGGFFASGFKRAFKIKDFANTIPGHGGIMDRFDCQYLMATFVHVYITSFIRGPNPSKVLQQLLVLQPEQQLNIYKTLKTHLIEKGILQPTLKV
Nature of the assay: protein array.

The target of assay [5] is T5, dynein axonemal assembly factor 3, transcript variant 3 (human, UniProt Q8N9W5 1-541).
T5 construct: on protein array; also called DNAAF3
T5 sequence: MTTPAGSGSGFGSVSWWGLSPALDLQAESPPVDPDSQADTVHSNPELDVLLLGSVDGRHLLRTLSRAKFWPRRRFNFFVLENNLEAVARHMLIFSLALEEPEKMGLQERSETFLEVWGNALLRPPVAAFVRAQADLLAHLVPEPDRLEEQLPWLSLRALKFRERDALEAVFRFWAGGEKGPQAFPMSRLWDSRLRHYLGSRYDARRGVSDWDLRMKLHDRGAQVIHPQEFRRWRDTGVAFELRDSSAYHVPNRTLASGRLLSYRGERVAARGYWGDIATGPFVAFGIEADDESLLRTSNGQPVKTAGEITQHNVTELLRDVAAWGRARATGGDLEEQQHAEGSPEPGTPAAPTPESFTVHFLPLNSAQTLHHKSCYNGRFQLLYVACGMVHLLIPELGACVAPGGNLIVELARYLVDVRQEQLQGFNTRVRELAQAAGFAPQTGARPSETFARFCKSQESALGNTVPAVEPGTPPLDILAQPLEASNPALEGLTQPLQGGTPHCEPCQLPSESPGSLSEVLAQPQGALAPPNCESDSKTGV
The experiment in a line: protein array.

Assay [6] concerns the target aldo-keto reductase family 1 member B, transcript variant 1 (human, UniProt P15121 2-316). The experiment in a line: protein array.
The target of assay [7] is T6, RAD1 checkpoint DNA exonuclease, transcript variant 1 (human, UniProt O60671 1-282).
T6 construct: on protein array
T6 sequence: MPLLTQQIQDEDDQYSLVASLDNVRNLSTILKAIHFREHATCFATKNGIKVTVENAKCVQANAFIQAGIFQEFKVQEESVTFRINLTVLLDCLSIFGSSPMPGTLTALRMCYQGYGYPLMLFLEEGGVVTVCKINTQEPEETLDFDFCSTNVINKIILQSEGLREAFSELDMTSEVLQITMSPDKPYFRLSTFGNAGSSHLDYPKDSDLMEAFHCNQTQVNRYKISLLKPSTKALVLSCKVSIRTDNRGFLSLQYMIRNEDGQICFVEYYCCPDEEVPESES
Nature of the assay: protein array.

For assay [8], the target named is T7, Microtubule associated scaffold protein 1 (human, UniProt Q9ULD2 875-1270).
T7 construct: on protein array; also called MTUS1
T7 sequence: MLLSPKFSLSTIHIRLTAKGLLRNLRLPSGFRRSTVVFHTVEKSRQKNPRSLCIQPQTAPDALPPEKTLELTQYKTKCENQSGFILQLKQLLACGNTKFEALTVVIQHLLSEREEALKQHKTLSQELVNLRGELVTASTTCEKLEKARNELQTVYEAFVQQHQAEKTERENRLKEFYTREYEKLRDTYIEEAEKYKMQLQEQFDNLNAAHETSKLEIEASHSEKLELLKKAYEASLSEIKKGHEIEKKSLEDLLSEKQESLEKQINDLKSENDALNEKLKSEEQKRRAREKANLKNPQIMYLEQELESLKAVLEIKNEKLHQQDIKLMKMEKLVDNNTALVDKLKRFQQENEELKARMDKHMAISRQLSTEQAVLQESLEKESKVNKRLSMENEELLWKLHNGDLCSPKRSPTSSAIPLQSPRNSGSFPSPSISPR
Nature of the assay: protein array.

B1: TKIC10013 (antibody, V domains shown)
VH: EVQLVESGGGLVQPGGSLRLSCAASGFTFNNYWMHWVRQAPGKGLVWVSRISSDGSTTASADSVKGRFTISRDNAKNTLFLQMNSLRAEDTAVYYCAREGAPDDYGDSGTAFDIWGQGTTVTVSS
VL: DIQLTQSPSFLSASVGDRVTITCRASQDISSFLAWYQQKPGKAPDLLIYAASTLQSGVPSRFSGSGSGTEFTLTISSLQPEDFAAYYCQHLTSFPYTFGQGTKLEIKR
notes: VH/VL tied via antigen in summary, not by name in this stretch
For the molecule B1, in assay [1], the binding result is recorded as “binds”.

B2: TKIC10012 (antibody, V domains shown)
VH: VVQLVESGGGLVQPGGSLRLSCAASGFSFSTYWMSWVRQAPGKGLEWVANIKQDGSEKHYVDSVKGRFTISRDNAKNSLYLQMNSLRAEDTAMYYCARRAYSFDYWGQGTLVTVSS
VL: DIQMTQSPSTLSASVGDKVTITCRASQSVGSWLAWYQQKPGKAPKLLISVASSLESGVPSRFSGSGSGTEFTLTVSSLQPDDFATYYCQQYNSYSWTFGQGTKVELKR
notes: as for B1
As to B2, the binding result in assay [2] is recorded as “binds”.

B3: TKIC10019 (antibody, V domains shown)
VH: QLQLQESGPGLVKPSETLSLTCTVSDVSIISSFYYWGWIRQPPGKGLEWIGSVYYSGSTSYNPSLKSRVTISADTSKAHFSLNLRSVTAADTAVYYCVSRGPLGGAAAGPDYWGQGALVIVSS
VL: VSSELTQDPAVSVALGQTVRITCQGDSLRSYYATWYQQKPGQAPLLVIFDKDKRPSGIPDRFSGSSSGNTASLTITGAQPEDEAVYYCNSRDSSAHDHLLFGGGTTLTVLG
notes: as for B1
Regarding B3, the binding result in assay [3] is “binds”.

B4: THNS1014 (antibody, V domains shown)
VH: HVQLLQSGPGLVKPSQTLSLTCAISGDSVSSTSGAWNWIRQSPSRGLEWLGRTYYRSQWMNDYAESVRSRITINPDTSKNQFSLQLKSVTPEDTAVYYCTRGWAFTSSDWGQGTQVTVSS
VL: EIVLTQSPGTLSLSPGERATLSCRASQSFDGKSLAWYQQKPGQTPRLLVYGASSRATGIPDRFGGSGSGTDFTLTISRLESEDFAVYFCQQYAYVPITFGQGTRLERKR
notes: VH/VL only
In the case of B4, the binding result in assay [4] and in assay [5] was “binds” each time.

B5: TKIC1006 (antibody, V domains shown)
VH: QVQLVQSGAEVKKPGSSVKVSCKTSGGTFSSYTISWVRQAPGQGPEWMGRIIPILNITNYAQKFQGRVTITADKSTSTTYMEMGSLRSEDTAVYFCARSFYGSGLQWGQGTLVTVSS
VL: EIVLTQSPGTLSLSPGERATLSCRASQSVSSSYLVWYQQKAGQAPRLLIYGASSRATGISDRFSGSGSGTDFTLTISRLEPEDFAVYYCQHFRSSPPTYTFGQGTKLEIKR
notes: as for B1
In the case of B5, in assay [6], the binding result is recorded as “binds”.

B6: THNS1006 (antibody, V domains shown)
VH: QVQLVESGGGVVQPGRSLRLSCAASGFTFSSYGMHWVRQAPGKGLEWVAIISYDGSNKYYADSVKGRFTISRDKSKNTLYLQMNSLRAEDTAVYYCAKSKGNYRDAMDVWGQGTTVTVSS
VL: SYVLTQPPSVSVAPGQTARITCGGNNIGSKSVHWYQQKPGQAPVLVVYDDSDRPSGIPERFSGSNSGNTATLTISRVEAGDEADYYCQVWDSSSDPWVFGGGTKLTVLG
notes: VH/VL only
As for B6, the binding result in assay [7] and in assay [8] was “binds” each time.
